The term IC50 denotes the concentration that inhibits the measured activity by half.

In assay [1] the target is T1, endogenous hPTHR1 (Homo sapiens, UniProt Q03431).
T1 construct: Saos-2, in which is endogenously expressed the hPTHR1; endogenous in cells
T1 sequence (Q03431 27-593): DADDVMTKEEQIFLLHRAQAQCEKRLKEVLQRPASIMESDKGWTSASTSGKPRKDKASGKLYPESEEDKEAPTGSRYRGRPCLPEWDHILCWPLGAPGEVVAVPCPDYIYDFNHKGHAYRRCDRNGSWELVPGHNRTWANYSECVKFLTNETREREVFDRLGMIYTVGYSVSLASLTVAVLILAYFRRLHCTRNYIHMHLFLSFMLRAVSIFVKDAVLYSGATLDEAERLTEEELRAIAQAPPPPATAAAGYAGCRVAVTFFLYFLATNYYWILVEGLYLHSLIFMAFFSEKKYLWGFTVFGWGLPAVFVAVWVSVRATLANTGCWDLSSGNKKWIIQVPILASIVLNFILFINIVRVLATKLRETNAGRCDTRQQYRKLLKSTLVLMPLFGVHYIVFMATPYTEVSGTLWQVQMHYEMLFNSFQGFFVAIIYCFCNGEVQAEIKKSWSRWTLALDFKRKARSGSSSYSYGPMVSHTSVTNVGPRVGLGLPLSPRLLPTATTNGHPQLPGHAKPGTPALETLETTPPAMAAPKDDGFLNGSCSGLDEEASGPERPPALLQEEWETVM
Kind of assay: Antagonism of PTH(1-34)- and PTHrP(1-36)-induced cAMP response (GloSensor) in SGS-72 cells. In kind it is cell-based. As to conditions: IC50 PTH(1-34) (Table 6, nanomolar value), antagonist pre-treatment 15 minutes, PTH(1-34) 0.3 nM. The method, then:
cAMP signaling was assessed in the HEK293-derived or SaOS2-derived cell lines stably expressing the luciferase-based GloSensorTM cAMP reporter ([…] al., Paper presented at: Novel Signaling Mechanisms and Bone Cell Biology 2014; Binkowski et al., Methods in molecular biology. 756:263-271). HEK-293 cells were further transfected to stably express the hPTHR1, hPTHR1-H223R, or hPTHR1-T410P. The cells were seeded into 96-well white plates and were assayed 24 to 48 hours post-confluency. Assays were performed at room temperature in CO2-independent culture media (Life Technologies, Corp., Carlsbad, Calif.) containing 0.1% BSA (CIDB). The cells were pre-loaded with luciferin (0.5 mM in CIDB) for 15 minutes, then PTH peptides were added at varying concentrations. cAMP-dependent luminescence was measured at two-minute intervals using a PerkinElmer Envision plate reader. The time at which maximum luminescence (cps) observed with agonist alone, typically at 10-20 minutes after agonist addition, was used to obtain data from wells containing antagonist with or without agonist, to thus generate antagonist ligand dose-response curves. The resulting cps values were then plotted against ligand concentration using GraphPad Prism 7.0 software and a four-parameter logistics curve fitting equation, which yielded parameters of inhibitory potency (pIC50). Pharmacological properties of the ligands were assessed in cells expressing the PTHR1 and the GloSensorTM cAMP reporter. The assays used GP-2.3 cells, derived from HEK293 cells by stable transfection with the hPTHR1 and GloSensorTM, as well as SGS-72 cells, which are derived from the human osteosarcoma cell line, Saos-2, in which is endogenously expressed the hPTHR1, by stable transfection with GloSensorTM. Binding of representative polypeptides to the PTHR1 was assessed in GP-2.3 cells by radioligand competition methods (FIGS. 1A and 1B, Table 3). […] In Table 5, antagonist assays were performed in SGS-72 cells (SaOS2 cells with stable GloSensorTM cAMP reporter) at room temperature. […] The mean (±sem) concentration of antagonist that inhibited the maximum agonist-induced response observed in the absence of antagonist (at 40 minutes) is reported in units of -log M (pIC50), and the corresponding nanomolar value is shown below each pIC50 value. Data are means of the number of seven experiments. The PTH(1-34)-induced maximum luminescence was 500,000 cps and the basal was 5,000 cps. TMR indicates Lys13 modified at epsilon amino function with TMR. The data are illustrated in FIG. 7A. […] Date are means (±SEM) of the number of separate experiments indicated by n.

The target of assay [2] is hPTHR1-H223R (human) (UniProt Q03431). Kind of assay: cell-based or functional assay.
Assay [3] addresses human parathyroid hormone receptor 1 (hPTHR1) (human) (UniProt Q03431). Kind of assay: cell-based or functional assay.
The target of assay [4] is T2, human PTHR1-H223R (Homo sapiens, UniProt Q03431, H223R).
T2 construct: expressed in transfected cells; host or cells: GHR-10 (HEK-293 stably expressing GloSensor and PTHR1-H223R)
T2 sequence (Q03431 27-593 H223R): T1 sequence (Q03431 27-593) with H197R
Kind of assay: Inverse agonism on basal cAMP signaling in GHR-10 cells. In kind it is cell-based. As to conditions: GHR-10 cells, from AUC, representative experiment. The method, then:
cAMP signaling was assessed in the HEK293-derived or SaOS2-derived cell lines stably expressing the luciferase-based GloSensor™ cAMP reporter (Hattersley et al., Paper presented at: Novel Signaling Mechanisms and Bone Cell Biology 2014; Binkowski et al., Methods in molecular biology. 756:263-271). HEK-293 cells were further transfected to stably express the hPTHR1, hPTHR1-H223R, or hPTHR1-T410P. The cells were seeded into 96-well white plates and were assayed 24 to 48 hours post-confluency. Assays were performed at room temperature in CO2-independent culture media (Life Technologies, Corp., Carlsbad, Calif.) containing 0.1% BSA (CIDB). The cells were pre-loaded with luciferin (0.5 mM in CIDB) for 15 minutes, then PTH peptides were added at varying concentrations. cAMP-dependent luminescence was measured at two-minute intervals using a PerkinElmer Envision plate reader. The time at which maximum luminescence (cps) observed with agonist alone, typically at 10-20 minutes after agonist addition, was used to obtain data from wells containing antagonist with or without agonist, to thus generate antagonist ligand dose-response curves. The resulting cps values were then plotted against ligand concentration using GraphPad Prism 7.0 software and a four-parameter logistics curve fitting equation, which yielded parameters of inhibitory potency (pIC50).
These experiments were performed in HEK-293 cells stably transfected to express the GloSensor™ cAMP reporter along with a constitutively active mutant human PTHR1. The HEK-293 cells stably expressing GloSensor™ cAMP reporter along with a constitutively active mutant human PTHR1-H223R are GHR-10 cells. The HEK-293 cells stably expressing GloSensor™ cAMP reporter along with a constitutively active mutant human PTHR1-T410P are GTP-4 cells. The HEK-293 cells stably expressing GloSensor™ cAMP reporter along with a WT-PTHR1 are GP-2.3 cells. GP-2.3 cells were used as control. […] Effects on basal cAMP signaling over time were assessed during periods of direct ligand addition (FIGS. 15A-15F). The measurements were performed by recording GloSensor™ luminescence as counts per second (cps) using a PerkinElmer Envision plate reader. The data are illustrated in FIGS. 15A-15F. Data are from triplicate wells (means±SEM) of a single experiment representative of two others.
Persistence of the antagonist/inverse agonist effects (prolonged action) as follows. Effects of eight peptides on basal and PTH(1-34)-stimulated cAMP signaling by PTHR-H223R were assessed in GHR-10 cells (HEK-293-derived cells stably expressing glosensor cAMP reporter and PTHR1-H223R). Time courses of changes in cAMP levels were recorded in three consecutive phases:
1) after initial addition of a candidate antagonist/inverse agonist (1×10^−6 M-1×10^−9 M) to cells pre-loaded for […] with luciferin (left column);
2) after removal of unbound inverse agonist by extensive wash-out with buffer and replenishment with fresh luciferin-containing buffer (middle column); and
Control wells were treated with vehicle. GloSensor™ luminescence, as counts per second (cps), was recorded using a PerkinElmer Envision plate reader. Data are from duplicate wells (means±SEM) of a single experiment representative of two others. The results are illustrated in Table 7 and in FIGS. 16A-16C, 17A-17C, 18A-18C, 19A-19C, 20A-20C, 21A-21C, 22A-22C, and 23A-23C.
GHR10 cells were treated with vehicle or vehicle containing the indicated peptide for 24 minutes and cAMP-dependent luminescence was recorded at two-minute intervals. The cells were then washed to remove unbound ligand and media containing fresh luciferin was added, and cAMP luminescence was recorded for another 26 minutes. Percentage reduction was calculated from the area-under-the-curve (AUC) values derived from the time course plots using the equation: […]

Numbering of substitutions follows the chain as printed. Where a SMILES comes first, the peptide text is derived from it. Where no end group is shown, it is not given here. [ ]: non-standard residue; d: D form. Nle = CCCC[C@H](N)C(=O)O

As for `CCCC[C@H](NC(=O)[C@H](CC(C)C)NC(=O)[C@H](CCC(N)=O)NC(=O)[C@@H](N)[C@@H](C)CC)C(=O)N[C@@H](Cc1c[nH]cn1)C(=O)N[C@@H](CCC(N)=O)C(=O)N[C@@H](CCCNC(=N)N)C(=O)N[C@H](Cc1c[nH]c2ccccc12)C(=O)N[C@@H](CCCCN)C(=O)N[C@@H](Cc1c[nH]c2ccccc12)C(=O)N[C@H](C(=O)N[C@@H](CCC(N)=O)C(=O)N[C@@H](CC(=O)O)C(=O)N[C@@H](C)C(=O)N[C@@H](CCCNC(=N)N)C(=O)N[C@@H](CCCNC(=N)N)C(=O)N[C@@H](CCCNC(=N)N)C(=O)N[C@@H](C)C(=O)N[C@@H](Cc1c[nH]c2ccccc12)C(=O)N[C@@H](CC(C)C)C(=O)N[C@@H](Cc1c[nH]cn1)C(=O)N[C@@H](CCCCN)C(=O)N[C@@H](CC(C)C)C(=O)N[C@H](C(=O)N[C@@H](C)C(=O)N[C@@H](CCC(=O)O)C(=O)N[C@H](C(=O)N[C@@H](Cc1c[nH]cn1)C(=O)N[C@H](C(=O)N[C@@H](C)C(=O)N[C@@H](CCC(=O)O)C(=O)N[C@@H](Cc1ccc(O)cc1)C(N)=O)[C@@H](C)O)[C@@H](C)CC)[C@@H](C)CC)[C@@H](C)CC` [compound 1954, Nle8, dW12, W23, Y36-LA-PTH(5-36)] (H-IQL[Nle]HQR[dW]KWIQDARRRAWLHKLIAEIHTAEY-NH2; N-terminus assumed), the IC50 in assay [1] came out at 1.75 nM.
With “L11, dW12, W23-LA-PTH(5-36)-2003 (peptide)”, in assay [2], the Reduction of basal cAMP, % vehicle; After ligand washout; GHR-10 cells is 64 % vehicle and the Reduction of basal cAMP, % vehicle; Ligand @ -6M; GHR-10 cells was determined as 66 % vehicle. Also, in assay [3], the IC50, antagonism of PTH(1-34) (0.3 nM)-induced cAMP response, SGS-72 cells came out at 2.57 nM and the pIC50, antagonism of PTH(1-34) (0.3 nM)-induced cAMP response, SGS-72 cells is 8.59 -log M.
In assay [2], “L11, dW12, W23-LA-PTH(7-36)-2001 (peptide)” registered a Reduction of basal cAMP, % vehicle; After ligand washout; GHR-10 cells of 65 % vehicle and a Reduction of basal cAMP, % vehicle; Ligand @ -6M; GHR-10 cells of 66 % vehicle. In addition, in assay [3], the IC50, antagonism of PTH(1-34) (0.3 nM)-induced cAMP response, SGS-72 cells worked out at 2.08 nM and the pIC50, antagonism of PTH(1-34) (0.3 nM)-induced cAMP response, SGS-72 cells was 8.68 -log M.
With “LA-PTH(5-36)-2012 (IQLMHQRAKWIQDARRRAFLHKLIAEIHTAEI-NH2) [compound 2012]”, in assay [4] (26 minutes after washout of unbound ligand), the “Reduction of basal cAMP, % vehicle, After ligand washout” value is −49 % vehicle. In assay [4] (peptide 1×10^−6 M for 24 minutes), the “Reduction of basal cAMP, % vehicle, Ligand @ −6M” value is −15 % vehicle.
In assay [2], “Nle8, L11, dW12, W23-LA-PTH(5-36)-1999 (peptide)” came in with a Reduction of basal cAMP, % vehicle; After ligand washout; GHR-10 cells of 62 % vehicle and a Reduction of basal cAMP, % vehicle; Ligand @ -6M; GHR-10 cells of 63 % vehicle. Also, in assay [3], the IC50, antagonism of PTH(1-34) (0.3 nM)-induced cAMP response, SGS-72 cells was 2.75 nM and the pIC50, antagonism of PTH(1-34) (0.3 nM)-induced cAMP response, SGS-72 cells is 8.56 -log M.
Taken in the same sequence, the figures for “Nle8, L11, dW12, W23-LA-PTH(7-36)-1997 (peptide)” were 71 % vehicle, 70 % vehicle, 2.1 nM and 8.68 -log M.
Taken in the same sequence, the figures for “Nle8, dW12, W23-LA-PTH(7-36)-1992 (peptide)” were 40 % vehicle, 51 % vehicle, 1.55 nM and 8.81 -log M.
Regarding “TMR-dW12, W23-LA-PTH(7-36)-1991 (peptide)”, in assay [3], the IC50, antagonism of PTH(1-34) (0.3 nM)-induced cAMP response, SGS-72 cells was found to be 1.95 nM and the pIC50, antagonism of PTH(1-34) (0.3 nM)-induced cAMP response, SGS-72 cells is 8.71 -log M.
With dW12, W23-LA-PTH(7-36)-1990 (peptide), in assay [2], the Reduction of basal cAMP, % vehicle; After ligand washout; GHR-10 cells is 39 % vehicle and the Reduction of basal cAMP, % vehicle; Ligand @ -6M; GHR-10 cells amounted to 50 % vehicle. Also, in assay [3], the IC50, antagonism of PTH(1-34) (0.3 nM)-induced cAMP response, SGS-72 cells worked out at 1.23 nM and the pIC50, antagonism of PTH(1-34) (0.3 nM)-induced cAMP response, SGS-72 cells is 8.91 -log M.

Values taken from US20190119348A1, “PARATHYROID HORMONE RECEPTOR 1 ANTAGONIST AND INVERSE AGONIST POLYPEPTIDES AND METHODS OF THEIR USE” (The General Hospital Corporation, priority 2016, published 2019).
